Test results reported in article PMC4738263 (Scientific Reports, 2016).

Target: the molecule itself
Test: crystal structure; dimeric HT cyt c552 without a His-tag obtained from E. coli by freeze-thaw, purified; sitting-drop vapor diffusion at room temperature; 1.8 Å

B1: Hydrogenobacter thermophilus cytochrome c552, wild type, without a His-tag (holo protein) (natural protein, UniProt P15452 19-98, looked up)
chain: NEQLAKQKGCMACHDLKAKKVGPAYADVAKKYAGRKDAVDYLAGKIKKGGSGVWGSVPMPPQNVTDAEAKQLAQWILSIK
modifications: heme c attached (holo protein)
stoichiometry N: 2
